# According to patent US20250066483A1:
# Experiments:
# [1] = target: canine PD-L1-His (canine); assay: SPR (Biacore X100), cPD-L1-His captured by anti-histidine antibody on a CM5 chip, canine CD80-Ig as analyte
# [2] = target: canine PD-L1-His (canine); assay: SPR (Biacore X100), cPD-L1-His captured by anti-histidine antibody on a CM5 chip, canine PD-1-Ig as analyte
Kd [1],Kd [2],Substance
0.0243 µM,,canine CD80-Ig (Fc fusion)
,0.0254 µM,canine PD-1-Ig (Fc fusion)
